This is an account of results in the supplement of paper PMC9170038.

The data set deals with MS2 coat protein. Put plainly: apparent KD of MS2 coat protein; designed switch direction (-1 OFF switch, 1 ON switch): -1; higher = weaker reporter binding. The gist of the method: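 Each step of the titration lasted 0.8–1.5 h at the lowest concentration and 10–20 min at the highest. The protein, SNAP-549-labelled MS2 coat protein, went from 0.7 or 1.5 nM doubling to 3 µM over RNA switches transcribed on Illumina chips by stalled E. coli RNA polymerase. Normalised cluster fluorescence was curve-fitted, and the per-design median over clusters is given as apparent KD.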

The mark [1] stands for this setting: Eterna round: R95, input ligand: FMN 200 uM.
[2] abbreviates: Eterna round: R95, input ligand: microRNA oligo, concentration not stated.
The mark [3] stands for this setting: Eterna round: R95, input ligand: none.
The mark [4] stands for this setting: input ligand: microRNA oligo, concentration not stated.

With “UCAUGUUUAGAGGAUAUGAUUACUCUAGAGUGAUCAGAAGGCUAGACAUGAGGAUCACCCAUGUCACAACAUGA [Exclusion 6 - B - 16:c] (puzzle: Exclusion 6)”, the “apparent KD of MS2 coat protein” value runs as follows: under setting [1], 73.6 nM; under setting [2], 44.5 nM; under setting [3], 128 nM.

As to “UCAUGUUUAGAGGAUAUGAUUACUUUAGAGUAAUCAGAAGGCUAGACAUGAGGAUCACCCAUGUCAUAACAUGA [Exclusion 6 - B - 15:a] (puzzle: Exclusion 6)”, the “apparent KD of MS2 coat protein” value under setting [1] stood at 38.3 nM, the “apparent KD of MS2 coat protein” value under setting [2] came out at 62 nM and the “apparent KD of MS2 coat protein” value under setting [3] came to 54.3 nM.

For the sequence “UCCAGCAUACGGAGAUCCAACAUGAGGAUCACCCAUGUCUGGAAAGCUUUUUGCUUGUCUUAUCCUCCUCUGUGUGC [Design #6] (Eterna round: R97, puzzle: Sensor, turn-off variant 1)”, the “apparent KD of MS2 coat protein” value reads like this: (input ligand: FMN 200 uM) 22.5 nM; (input ligand: none) 22.9 nM.

Take “UCCAGGCGAGGAUAUACAAAGAUUUUUUCGUUUAGUCUCGAACAUGAGGAUCACCCAUGUAGAAGGUGCUUCAC [JR_Ex2_Sub011] (Eterna round: R97, puzzle: Exclusion 2)”: the “apparent KD of MS2 coat protein” value was 46.6 nM (input ligand: FMN 200 uM) and 48.3 nM (input ligand: none).

Regarding “UCCCAACAUGAGGAUCACCCAUGUAAGGAUAUCCAUGGACGACGGCAUUGUUCCCGGCGGAGAAGGUGCAUGGU [EX1 B.21] (Eterna round: R97, puzzle: Exclusion 1)”, the “apparent KD of MS2 coat protein” value is, setting by setting: (input ligand: FMN 200 uM) 46.4 nM; (input ligand: none) 27.6 nM.

For “UCCGAACAUGAGGAUCACCCAUGUCAGGAUAUUCGGUUACGUGACAAAUAGUACUAACGAAGAAGGGACAUGCU [Eternabot (L2) Solution 26] (Eterna round: R97, puzzle: Exclusion 1)”, the “apparent KD of MS2 coat protein” value (input ligand: FMN 200 uM) worked out at 79.1 nM and the “apparent KD of MS2 coat protein” value (input ligand: none) is 27.7 nM.

“UCCUCACAUGAGGAUCACCCAUGUCAGGAUAUGCGCGGCCAAAAGGGCUGCUAAGGCAGCAGAAGGGACGUGAA [Rarequtece] (puzzle: Exclusion 1)”: the “apparent KD of MS2 coat protein” value is 18.7 nM under setting [1], 14.1 nM under setting [2] and 15 nM under setting [3].

With “UCCUCACUUGAGGAUCACCCAAGUCAGGAUAUUCACUGAACUGCGUAACAGUUCGGCCGAAGAAGGGAUUCGGG [Veatorma] (Eterna round: R97, puzzle: Exclusion 1)”, the “apparent KD of MS2 coat protein” value stood at 259 nM (input ligand: FMN 200 uM) and 75 nM (input ligand: none).

Consider “UCGAUGCGAGGAUAUACUAAGGCAACUACUGCAGCUCAAAAACAUGAGGAUCACCCAUGUAGAAGGCGCAUAUA [JR_Exc002_Sub304] (Eterna round: R96, puzzle: Exclusion 2)”, for which the “apparent KD of MS2 coat protein” value under setting [4] was 12.9 nM.

Regarding “UCGAUGUGAGGAUAUAUAUGCAGUAGUCCUUGUGUUUUAUAACUUGAGGAUCACCCAAGUAGAAGGCGCGACGU [JR_Ex2_Sub059] (Eterna round: R97, puzzle: Exclusion 2)”, the “apparent KD of MS2 coat protein” value was found to be 37 nM (input ligand: FMN 200 uM) and 33.5 nM (input ligand: none).

Regarding “UCGCUGCGAGGAUAUACAUGAGGAUCACCCAUGUACGGGUCCGGGUCUUCGUCCAUUAGUAGAAGGCGCAGUGA [JL Laongeedie mod 2] (puzzle: Exclusion 3)”, under setting [2], the “apparent KD of MS2 coat protein” value is 47.7 nM.

Turning to “UCGGCGCGAGGAUAUACGUUUGCUUUUUAGGGUCGUGGCGUACAUGAGGAUCACCCAUGUAGAAGGCGCGCCGC [Apr-15 SS2-29] (puzzle: Exclusion 2)”, the “apparent KD of MS2 coat protein” value under setting [2] was 14.6 nM.

As for “UCGGCGCGAGGAUAUACGUUUGCUUUUUUUUGUUUUUGUGUACAUGAGGAUCACCCAUGUAGAAGGCGCGCCGC [Apr-15 SS2-21] (puzzle: Exclusion 2)”, under setting [2], the “apparent KD of MS2 coat protein” value was determined as 22 nM.

Consider “UCGUGGUAACUCAGCAGUUUCCUGAGCGGAGGAACUUUGACAUGAGGAUCACCCAUGUUGCUUUUUGCUCAUCUUAA [JR_SV3TOV2_Sub042] (puzzle: Sensor v3, turn-off variant 2)”, for which the “apparent KD of MS2 coat protein” value came to 20.9 nM under setting [1], 40.3 nM under setting [2] and 16.1 nM under setting [3].

Consider “UCGUUCCGUGUAGGAUAUUGGCCUCCCUCGGGCCGAGAAGGACAUGAGGAUCACCCAUGUAUGUUAUUAUCGCGCGUGGCGCAU [Design 89] (Eterna round: R96, puzzle: Exclusion NG 1)”, for which the “apparent KD of MS2 coat protein” value was determined as 113 nM (input ligand: FMN 200 uM), 14.5 nM under setting [4] and 20.8 nM (input ligand: none).

For “UCGUUCCGUGUAGGAUAUUGGCCUUCCUUGGGCCGAGAAGGACAUGAGGAUCACCCAUGUAUGUUAUUAUCGCGCGUGGCGCAU [Design 87] (Eterna round: R96, puzzle: Exclusion NG 1)”, the “apparent KD of MS2 coat protein” value is 97.1 nM (input ligand: FMN 200 uM), 13.3 nM under setting [4] and 18.6 nM (input ligand: none).

As to “UCGUUGUAAAUCAGGUGAUGUCUGUUAGGAUGGACUUUGACAUGAGGAUCACCCAUGUUGCUUUUUGCCCGUCUUAA [JR_SV3TOV2_Sub045] (puzzle: Sensor v3, turn-off variant 2)”, the “apparent KD of MS2 coat protein” value under setting [1] came out at 33.6 nM, the “apparent KD of MS2 coat protein” value under setting [2] came to 68.5 nM and the “apparent KD of MS2 coat protein” value under setting [3] stood at 38.4 nM.

With “UCUCGCGGGCAAGGAUAUCCUACAUUGUUCUGGCCCGGGCAUGUUACAUGAGGAUCACCCAUGUGGGAGAAGGUGCGCCAGGGC [Design 35] (Eterna round: R96, puzzle: Exclusion NG 2)”, the “apparent KD of MS2 coat protein” value runs as follows: (input ligand: FMN 200 uM) 29.9 nM; under setting [4], 18.9 nM; (input ligand: none) 30.3 nM.

Turning to “UCUGGUCGAGGAUAUACAUGAGGAUCACCCAUGUUGAUCAACUGCCGAUAGGCAGAAUGUAGAAGGCGACCAGA [E3/7-A3] (Eterna round: R97, puzzle: Exclusion 3)”, the “apparent KD of MS2 coat protein” value by setting is: (input ligand: FMN 200 uM) 176 nM; (input ligand: none) 865 nM.

“UCUGUUGAAGGAUAUGCGUAACGAGUUACGGCUCAAGGUCUACAUGAGGAUCACCCAUGUAGAAGGUCAUCAGA [EX2 #71] (Eterna round: R97, puzzle: Exclusion 2)”: the “apparent KD of MS2 coat protein” value came out at 19.5 nM (input ligand: FMN 200 uM) and 17.4 nM (input ligand: none).

On to “UCUUAUUGAGGAUAUACAUUAAAAUACAUGAGGAUCACCCAUGUUCUUCAAUGUAUAUAUGUAGAAGGCAGAAGAU [Mat - Exclusion 5 - JL Mod - D26] (Eterna round: R97, puzzle: Exclusion 5)”, for which the “apparent KD of MS2 coat protein” value (input ligand: FMN 200 uM) was found to be 155 nM and the “apparent KD of MS2 coat protein” value (input ligand: none) turned out to be 36.9 nM.

For “UCUUAUUGCAAGGAUAUGCAAAUUAUUUUUUAAGCAGAAGGUGCAACAUGAGGAUCACCCAUGUUUCCGGGCAA [JR_E6_Sub038] (puzzle: Exclusion 6)”, the “apparent KD of MS2 coat protein” value under setting [2] came to 16.8 nM.

With “UGAAAACAUGAGGAUCACCCAUGUAAGGAUAUGCAAAAGGAUAUAGAAGGAAAAAAAAGCAGAAGGUACAAAGG [salish99-ex1_r3_095] (puzzle: Exclusion 1)”, the “apparent KD of MS2 coat protein” value was found to be 99.4 nM under setting [1], 86.6 nM under setting [2] and 60.3 nM under setting [3].

“UGAACAUGUGUCAGGAUAUCUGAUGUAAGUUAAUCGGAGAAGGGACAUGAGGAUCACCCAUGUCGUCGAAAGAU [Eternabot (L2) Solution 40] (Eterna round: R97, puzzle: Brourd's mod of Exclusion 4)”: the “apparent KD of MS2 coat protein” value is, setting by setting: (input ligand: FMN 200 uM) 19.3 nM; (input ligand: none) 15.5 nM.
